The source of these data is patent publication US11702475B2, “Cysteine engineered fibronectin type III domain binding molecules” (Janssen Biotech, Inc., priority 2013, dated 2023).

The nature of series [1]: Thermal stability of cysteine-NEM conjugates by DSC. Type of series: physicochemical. The settings on record: for First Scan Tm: DSC 25-100 °C, 1 °C per minute; for Second Scan Tm: second identical scan. How it is done:
The thermal stability of cysteine-NEM conjugates was assessed by differential scanning calorimetry (DSC). The only the conjugates tested were those determined to express at high levels, conjugate efficiently, and retain EGFR binding. Additionally, cysteine variants within the BC and FG loops were excluded. Stability data was generated by heating a 400 μL aliquot of the variant from 25° C. to 100° C. at a scan rate of 1° C. per minute in a VP-DSC instrument (MicroCal). A second identical scan was completed on the sample in order to assess the reversibility of thermal folding/unfolding. Data was fitted to a 2-state unfolding model in order to calculate the melting temperature (Table 10).
(DSC measures the heat that a sample takes up or gives off during a temperature scan.)

Series [2] can be described thus: Analytical size exclusion chromatography (percent monomer). Type of series: physicochemical. The settings on record: NEM-conjugated cysteine variants; SEC, Abs280 monomer region 5.5-6 minutes vs oligomer region 4-5.3 minutes. In outline: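 Purified FN3 domains were run on a Superdex 75 5/150 column in PBS pH 7.4 at 0.3 mL/min with A280 detection. Percent monomer came from integrating the monomer peak (5.5–6 min) against oligomer peaks (4–5.3 min).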
For orientation: SEC sorts molecules by how far they enter the pores of the column.

The subject of series [3] is EGFR-overexpressing human tumor cell line H1573. In words: Cytotoxicity assay in H1573 cells. Type of series: cell-based. The settings on record: cysteine variants conjugated to VC-MMAF, Cell TiterGlo at 70 hours, read-out: IC50. How it is done:
Cell killing was assessed by measuring viability of the EGFR-overexpressing human tumor cell line H1573 following exposure to the cysteine variant-cytotoxin conjugates. Cells were plated in black-well, clear bottomed, tissue culture-treated plates (Falcon 353219) at 7000/well in 100 μL/well of phenol red free RPMI media (Gibco 11835-030) with 5% fetal bovine serum (Gibco). Cells were allowed to attach overnight at 37° C. in a humidified 5% CO2 atmosphere. Medium was aspirated from 96-well plate and cells were treated with 50 uL of fresh media and 50 uL of 2× inhibitor made up in fresh media. Cell viability was determined by an endpoint assay with Cell TiterGlo (Promega) at 70 hours. IC50 values were determined by fitting data to the equation for a sigmoidal dose response with variable slope using GraphPad Prism 5 (GraphPad Software). Table 11 reports IC50 values obtained from analysis of the CellTiter Glo data.
Conjugates consisting of ECB147 cysteine variants, 83v2-cys, or Tencon-cys linked to a cytotoxic tubulin inhibitor from the auristatin family (FIG. 2) were tested for target-dependent cytotoxicity in cancer cells. The inhibitor was linked to the cysteine-containing protein via a non-cleavable PEG4 linker or an enzyme-cleavable valine-citrulline or valine-lysine linker. Cell killing was assessed by measuring viability of the EGFR-overexpressing human tumor cell lines H1573 and A431 as well as the EGFR-negative tumor cell line MDA-MB-435 following exposure to the protein-cytotoxin conjugates using the procedure described in Example 4.
A general note: Cellular ATP, detected with luciferase, serves as a proxy for viable cell number.

B1: S38C: cysteine variant of P54AR4-83v2 (SEQ ID NOS: 198 and 236); NEM and VC-MMAF conjugates (conjugate)
chain: MLPAPKNLVVSEVTEDSARLSWDDPWAFYESFLIQYQECEKVGEAIVLTVPGSERSYDLTGLKPGTEYTVSIYGVHNVYKDTNMRGLPLSAIFTT
modifications: NEM or vcMMAF conjugate; EGFR binding FN3 domain
notes: NEM and VC-MMAF conjugates
One may read the IC50 as the concentration at which inhibition is half-maximal. With B1, in series [1], the “First Scan Tm” value amounted to 65 °C and the “Second Scan Tm” value worked out at 65 °C. This molecule also returned a Percent monomer in series [2] of 93%. Besides, the IC50 in series [3] worked out at 0.76 nM.

B2: V41C: cysteine variant of P54AR4-83v2 (SEQ ID NOS: 200 and 238); NEM and VC-MMAF conjugates (conjugate)
chain: MLPAPKNLVVSEVTEDSARLSWDDPWAFYESFLIQYQESEKCGEAIVLTVPGSERSYDLTGLKPGTEYTVSIYGVHNVYKDTNMRGLPLSAIFTT
modifications: NEM or vcMMAF conjugate; EGFR binding FN3 domain
notes: NEM and VC-MMAF conjugates
Take B2: in series [1], the “First Scan Tm” value stood at 71 °C and the “Second Scan Tm” value worked out at 71 °C. In series [2], this molecule had a Percent monomer of 98%. Moreover, in series [3], the concentration for half-maximal inhibition (IC50) came out at 1.13 nM.

B3: S70C: cysteine variant of P54AR4-83v2 (SEQ ID NOS: 211 and 249); NEM and VC-MMAF conjugates (conjugate)
chain: MLPAPKNLVVSEVTEDSARLSWDDPWAFYESFLIQYQESEKVGEAIVLTVPGSERSYDLTGLKPGTEYTVCIYGVHNVYKDTNMRGLPLSAIFTT
modifications: NEM or vcMMAF conjugate; EGFR binding FN3 domain
notes: NEM and VC-MMAF conjugates
Take B3: in series [1], the “First Scan Tm” value worked out at 73 °C and the “Second Scan Tm” value was 72 °C. In series [2], this molecule had a Percent monomer of 100%. Moreover, the IC50 in series [3] stood at 1.14 nM.

B4: T48C: cysteine variant of P54AR4-83v2 (SEQ ID NOS: 203 and 241); NEM and VC-MMAF conjugates (conjugate)
chain: MLPAPKNLVVSEVTEDSARLSWDDPWAFYESFLIQYQESEKVGEAIVLCVPGSERSYDLTGLKPGTEYTVSIYGVHNVYKDTNMRGLPLSAIFTT
modifications: NEM or vcMMAF conjugate; EGFR binding FN3 domain
notes: NEM and VC-MMAF conjugates
Turning to B4, in series [1], the “First Scan Tm” value stood at 72 °C and the “Second Scan Tm” value turned out to be 72 °C. Besides, the Percent monomer in series [2] is listed as 90%. For the same molecule, in series [3], the IC50 came to 0.59 nM.

B5: I45C: cysteine variant of P54AR4-83v2 (SEQ ID NOS: 201 and 239); NEM and VC-MMAF conjugates (conjugate)
chain: MLPAPKNLVVSEVTEDSARLSWDDPWAFYESFLIQYQESEKVGEACVLTVPGSERSYDLTGLKPGTEYTVSIYGVHNVYKDTNMRGLPLSAIFTT
modifications: NEM or vcMMAF conjugate; EGFR binding FN3 domain
notes: NEM and VC-MMAF conjugates
Consider B5, for which, in series [1], the “First Scan Tm” value was 69 °C and the “Second Scan Tm” value is 68 °C. This molecule also had a Percent monomer in series [2] of 97%. For the same molecule, in series [3], the IC50 turned out to be 0.63 nM.

B6: G64C: cysteine variant of P54AR4-83v2 (SEQ ID NOS: 209 and 247); NEM and VC-MMAF conjugates (conjugate)
chain: MLPAPKNLVVSEVTEDSARLSWDDPWAFYESFLIQYQESEKVGEAIVLTVPGSERSYDLTGLKPCTEYTVSIYGVHNVYKDTNMRGLPLSAIFTT
modifications: NEM or vcMMAF conjugate; EGFR binding FN3 domain
notes: NEM and VC-MMAF conjugates
With B6, in series [1], the “First Scan Tm” value was 70 °C and the “Second Scan Tm” value was determined as 70 °C. In series [2], the Percent monomer came to 100%. In addition, the IC50 in series [3] was found to be 0.36 nM.

B7: K62C: cysteine variant of P54AR4-83v2 (SEQ ID 208 and 246); NEM and VC-MMAF conjugates (conjugate)
chain: MLPAPKNLVVSEVTEDSARLSWDDPWAFYESFLIQYQESEKVGEAIVLTVPGSERSYDLTGLCPGTEYTVSIYGVHNVYKDTNMRGLPLSAIFTT
modifications: NEM or vcMMAF conjugate; EGFR binding FN3 domain
notes: NEM and VC-MMAF conjugates
Consider B7, for which, in series [1], the “First Scan Tm” value amounted to 65 °C and the “Second Scan Tm” value is 65 °C. The molecule also gave a Percent monomer in series [2] of 95%. In addition, the IC50 in series [3] is 1.25 nM.

B8: R54C: cysteine variant of P54AR4-83v2 (SEQ ID NOS: 205 and 243); NEM and VC-MMAF conjugates (conjugate)
chain: MLPAPKNLVVSEVTEDSARLSWDDPWAFYESFLIQYQESEKVGEAIVLTVPGSECSYDLTGLKPGTEYTVSIYGVHNVYKDTNMRGLPLSAIFTT
modifications: NEM or vcMMAF conjugate; EGFR binding FN3 domain
notes: NEM and VC-MMAF conjugates
In the case of B8, in series [1], the “First Scan Tm” value was 65 °C and the “Second Scan Tm” value amounted to 65 °C. The same molecule registered a Percent monomer in series [2] of 96%. The IC50 in series [3] was found to be 0.37 nM.

B9: G60C: cysteine variant of P54AR4-83v2 (SEQ ID NOS: 207 and 245); NEM and VC-MMAF conjugates (conjugate)
chain: MLPAPKNLVVSEVTEDSARLSWDDPWAFYESFLIQYQESEKVGEAIVLTVPGSERSYDLTCLKPGTEYTVSIYGVHNVYKDTNMRGLPLSAIFTT
modifications: NEM or vcMMAF conjugate; EGFR binding FN3 domain
notes: NEM and VC-MMAF conjugates
Consider B9, for which, in series [1], the “First Scan Tm” value came to 66 °C and the “Second Scan Tm” value is 66 °C. Further, the Percent monomer in series [2] was 100%. For the same molecule, the IC50 in series [3] worked out at 1 nM.

B10: K40C: cysteine variant of P54AR4-83v2 (SEQ ID NOS: 199 and 237); NEM and VC-MMAF conjugates (conjugate)
chain: MLPAPKNLVVSEVTEDSARLSWDDPWAFYESFLIQYQESECVGEAIVLTVPGSERSYDLTGLKPGTEYTVSIYGVHNVYKDTNMRGLPLSAIFTT
modifications: NEM or vcMMAF conjugate; EGFR binding FN3 domain
notes: NEM and VC-MMAF conjugates
Consider B10, for which, in series [1], the “First Scan Tm” value was found to be 70 °C and the “Second Scan Tm” value stood at 70 °C. In series [2], this molecule displayed a Percent monomer of 97%. For the same molecule, the IC50 in series [3] came out at 0.73 nM.

B11: T59C: cysteine variant of P54AR4-83v2 (SEQ ID NOS: 206 and 244); NEM and VC-MMAF conjugates (conjugate)
chain: MLPAPKNLVVSEVTEDSARLSWDDPWAFYESFLIQYQESEKVGEAIVLTVPGSERSYDLCGLKPGTEYTVSIYGVHNVYKDTNMRGLPLSAIFTT
modifications: NEM or vcMMAF conjugate; EGFR binding FN3 domain
notes: NEM and VC-MMAF conjugates
B11: in series [1], the “First Scan Tm” value was found to be 67 °C and the “Second Scan Tm” value came out at 67 °C. In series [2], this molecule returned a Percent monomer of 100%. Also, the IC50 in series [3] was found to be 0.44 nM.

B12: L47C: cysteine variant of P54AR4-83v2 (SEQ ID NOS: 202 and 240); NEM and VC-MMAF conjugates (conjugate)
chain: MLPAPKNLVVSEVTEDSARLSWDDPWAFYESFLIQYQESEKVGEAIVCTVPGSERSYDLTGLKPGTEYTVSIYGVHNVYKDTNMRGLPLSAIFTT
modifications: NEM or vcMMAF conjugate; EGFR binding FN3 domain
notes: NEM and VC-MMAF conjugates
In the case of B12, in series [1], the “First Scan Tm” value was found to be 67 °C and the “Second Scan Tm” value stood at 67 °C. In series [2], this molecule yielded a Percent monomer of 100%. Also, in series [3], the IC50 came to 1.03 nM.

B13: Y72C: cysteine variant of P54AR4-83v2; NEM and VC-MMAF conjugates (conjugate)
chain: LPAPKNLVVSEVTEDSARLSWDDPWAFYESFLIQYQESEKVGEAIVLTVPGSERSYDLTGLKPGTEYTVSICGVHNVYKDTNMRGLPLSAIFTT
modifications: left off: small tags and cut ends
notes: cysteine variant of P54AR4-83v2; NEM and VC-MMAF conjugates
In the case of B13, in series [1], the “First Scan Tm” value amounted to 70 °C and the “Second Scan Tm” value came to 69 °C. Moreover, the Percent monomer in series [2] came to 100%. Moreover, the IC50 in series [3] was found to be 1.85 nM.
